By Kd is commonly meant the free concentration of one partner at which half of the binding sites on the other are occupied at equilibrium, for simple one-to-one binding. Usually stoichiometry N stands for a count of units in the complex or per binding partner.

One data set has as its system ME-47. The data set is described as follows: fluorescence polarization. Particulars: FP: 10 mM Tris-HCl, 50 mM KCl, 1 mM EDTA, 5 mM MgCl2, 10 mM DTT, 2 nM DNA stock mixed 20 ul + 20 ul protein, 30 min, pH and temperature not stated; pulldown: …. (Fluorescence polarisation rises when a labelled molecule tumbles more slowly, as on binding a larger partner.)
Data set [1] deals with Myc (human (endogenous in HCT116)) (UniProt P01106).
Data set [2] deals with Omomyc (recombinant, bacterially expressed) (UniProt P01106). The data set can be described thus: SEC; size exclusion chromatography of purified Omomyc, data not shown.
For data set [3] the target is unchanged. The data set can be described thus: native gel or EMSA; native gel electrophoresis of purified recombinant Omomyc (the legend of Fig. 1A speaks of SDS-PAGE under nonreduced and reduced conditions). A general note: In EMSA bound probe runs differently from free probe, usually more slowly.
The target in data set [4] is T1, MAX bHLH peptide (MAX/MAX) (UniProt P61244 22-103). The data set can be described thus: fluorescence polarization; text: fails to bind; FP: 10 mM Tris-HCl, 50 mM KCl, 1 mM EDTA, 5 mM MgCl2, 10 mM DTT, 2 nM DNA stock mixed 20 ul + 20 ul protein, 30 min, pH and temperature not stated; pulldown: 50 mM Tris-HCl pH 7.5, 5% glycerol, 1.5 mM MgCl2, 150 mM NaCl, 1 mM DTT, IGEPAL, 4 C. To be noted: chain copies: 2; label: 5'-FAM; blunt.

Data set [5] deals with MYC bHLH peptide (MYC/MYC) (UniProt P01106 365-454). The data set can be described thus: fluorescence polarization; table heading: affinity; FP: 10 mM Tris-HCl, 50 mM KCl, 1 mM EDTA, 5 mM MgCl2, 10 mM DTT, 2 nM DNA stock mixed 20 ul + 20 ul protein, 30 min, pH and temperature not stated; pulldown: 50 mM Tris-HCl pH 7.5, 5% glycerol, 1.5 mM MgCl2, 150 mM NaCl, 1 mM DTT, IGEPAL, 4 C. Particulars: chain copies: 2, blunt.

For data set [6], the target named is T2, Omomyc (synthetic or recombinant) (UniProt P01106 365-454, E425T;E432I;R438Q;R439N). The data set is described as above. To be noted: chain copies: 2, blunt.
Data set [7] deals with MYC bHLH peptide (in MYC/MAX);MAX bHLH peptide (in MYC/MAX) (;, UniProt P01106;P61244 365-454;22-103, |). Described as above. To be noted: tags: ;, copies: 1;1, blunt.
The target of data set [8] is T2, Omomyc (synthetic or recombinant). The data set is described as follows: fluorescence polarization; synthetic Omomyc; FP: 10 mM Tris-HCl, 50 mM KCl, 1 mM EDTA, 5 mM MgCl2, 10 mM DTT, 2 nM DNA stock mixed 20 ul + 20 ul protein, 30 min, pH and temperature not stated; pulldown: 50 mM Tris-HCl pH 7.5, 5% glycerol, 1.5 mM MgCl2, 150 mM NaCl, 1 mM DTT, IGEPAL, 4 C. To be noted: chain copies: 2; blunt.

Data set [9] deals with T1, MAX bHLH peptide (MAX/MAX). The data set is described as follows: fluorescence polarization; table heading: affinity; FP: 10 mM Tris-HCl, 50 mM KCl, 1 mM EDTA, 5 mM MgCl2, 10 mM DTT, 2 nM DNA stock mixed 20 ul + 20 ul protein, 30 min, pH and temperature not stated; pulldown: 50 mM Tris-HCl pH 7.5, 5% glycerol, 1.5 mM MgCl2, 150 mM NaCl, 1 mM DTT, IGEPAL, 4 C. Particulars: chain copies: 2; blunt.

As for “CCCCCACCACGCGGTGCCTGA (double strand) [VEGFA-2 E box]”, the Kd in the data set on ME-47 came out at 3110 nM.
On the same count and under the same terms, as for “CCCCCACCACGTGGTGCCTGA (double strand) [E box DNA (FP probe)]”, the figure is 117 nM.
Turning to “Omomyc (recombinant, bacterially expressed) (from UniProt P01106 369-421) (domain or fragment)”, in data set [1], the cellular thermal shift assay (CETSA) in Ramos cell lysates with 20 μM Omomyc: change in the aggregation temperature (Tagg) of Myc (destabilisation) came out at 6 °C and the cellular thermal shift assay (CETSA), isothermal dose-response fingerprint at 54°C in Ramos cell lysates: EC50 of Omomyc for thermal destabilisation of Myc was 16 µM. Further, in [2], the stoichiometry N is 2. In data set [3], the stoichiometry N came to 2.
In the case of “CCCCCACCACCTGGTGCCTGA (double strand) [VEGFA-1 E box]”, in the data set with ME-47, the Kd worked out at 1080 nM.

B1: VEGFA-2 E box (dsDNA)
DNA 1: CCCCCACCACGCGGTGCCTGA
DNA 2: TCAGGCACCGCGTGGTGGGGG
For the molecule B1, the Kd in data set [4] came to 2020 nM; in [5] (label: 5'-FAM), 111 nM; in data set [6] (label: 5'-FAM) it was 99.2 nM; in data set [7] (label: 5'-FAM), 451 nM.

B2: E box DNA (FP probe) (dsDNA)
DNA 1: CCCCCACCACGTGGTGCCTGA
DNA 2: TCAGGCACCACGTGGTGGGGG
Take B2: the Kd was ~22 nM in data set [8]; 159 nM in data set [5]; 107 nM in [6]; 258 nM in data set [9]; 71.4 nM in data set [7].

B3: VEGFA-1 E box (dsDNA)
DNA 1: CCCCCACCACCTGGTGCCTGA
DNA 2: TCAGGCACCAGGTGGTGGGGG
Consider B3, for which the Kd in data set [4] is 3390 nM; in [5] (label: 5'-FAM), 140 nM; in [6] (label: 5'-FAM) it was 103 nM; in data set [7] (label: 5'-FAM) it was 397 nM.

The values are drawn from PMC6817756.
